Laboratory results taken from patent US12467929.

Columns and labels:
[1] = target: recombinant UBE3A protein (Homo sapiens (Human)) (UniProt Q05086); assay: 3-step Simoa; capture Novus; UBE3A 1 ng/ml
[2] = target: recombinant UBE3A protein (Homo sapiens (Human)) (UniProt Q05086); assay: 2-step Simoa; capture Novus; UBE3A 0.01 ng/ml
[3] = target: recombinant UBE3A protein (Homo sapiens (Human)) (UniProt Q05086); assay: 3-step Simoa; capture Novus; UBE3A 10 ng/ml
[4] = target: recombinant UBE3A protein (Homo sapiens (Human)) (UniProt Q05086); assay: 3-step Simoa; capture MS 2F6; UBE3A 10 ng/ml
[5] = target: recombinant UBE3A protein (Homo sapiens (Human)) (UniProt Q05086); assay: 3-step Simoa; capture MS 2F6; UBE3A 0.1 ng/ml
[6] = target: recombinant UBE3A protein (Homo sapiens (Human)) (UniProt Q05086); assay: 2-step Simoa; capture MS 2F6; UBE3A 0.1 ng/ml
[7] = target: recombinant UBE3A protein (Homo sapiens (Human)) (UniProt Q05086); assay: 3-step Simoa; capture MS 2F6; UBE3A 1 ng/ml
[8] = target: recombinant UBE3A protein (Homo sapiens (Human)) (UniProt Q05086); assay: 2-step Simoa; capture GTX; UBE3A 0.01 ng/ml
[9] = target: recombinant UBE3A protein (Homo sapiens (Human)) (UniProt Q05086); assay: 2-step Simoa; capture Novus; UBE3A 0.1 ng/ml
[10] = target: recombinant UBE3A protein (Homo sapiens (Human)) (UniProt Q05086); assay: 3-step Simoa; capture Novus; UBE3A 0.01 ng/ml
[11] = target: recombinant UBE3A protein (Homo sapiens (Human)) (UniProt Q05086); assay: 3-step Simoa; capture GTX; UBE3A 0.1 ng/ml
[12] = target: recombinant UBE3A protein (Homo sapiens (Human)) (UniProt Q05086); assay: 2-step Simoa; capture GTX; UBE3A 10 ng/ml
[13] = target: recombinant UBE3A protein (Homo sapiens (Human)) (UniProt Q05086); assay: 3-step Simoa; capture GTX; UBE3A 1 ng/ml
[14] = target: recombinant UBE3A protein (Homo sapiens (Human)) (UniProt Q05086); assay: 2-step Simoa; capture MS 2F6; UBE3A 1 ng/ml
[15] = target: recombinant UBE3A protein (Homo sapiens (Human)) (UniProt Q05086); assay: 2-step Simoa; capture GTX; UBE3A 1 ng/ml
[16] = target: recombinant UBE3A protein (Homo sapiens (Human)) (UniProt Q05086); assay: 2-step Simoa; capture GTX; UBE3A 0.1 ng/ml
[17] = target: recombinant UBE3A protein (Homo sapiens (Human)) (UniProt Q05086); assay: 2-step Simoa; capture Novus; UBE3A 1 ng/ml
[18] = target: recombinant UBE3A protein (Homo sapiens (Human)) (UniProt Q05086); assay: 3-step Simoa; capture GTX; UBE3A 0.01 ng/ml
[19] = target: recombinant UBE3A protein (Homo sapiens (Human)) (UniProt Q05086); assay: 3-step Simoa; capture GTX; UBE3A 10 ng/ml
[20] = target: recombinant UBE3A protein (Homo sapiens (Human)) (UniProt Q05086); assay: 2-step Simoa; capture MS 2F6; UBE3A 10 ng/ml
[21] = target: recombinant UBE3A protein (Homo sapiens (Human)) (UniProt Q05086); assay: 3-step Simoa; capture Novus; UBE3A 0.1 ng/ml
[22] = target: recombinant UBE3A protein (Homo sapiens (Human)) (UniProt Q05086); assay: 2-step Simoa; capture Novus; UBE3A 10 ng/ml
[23] = target: recombinant UBE3A protein (Homo sapiens (Human)) (UniProt Q05086); assay: 2-step Simoa; capture MS 2F6; UBE3A 0.01 ng/ml

UniProt Q05086, sequence (Q05086 whole entry): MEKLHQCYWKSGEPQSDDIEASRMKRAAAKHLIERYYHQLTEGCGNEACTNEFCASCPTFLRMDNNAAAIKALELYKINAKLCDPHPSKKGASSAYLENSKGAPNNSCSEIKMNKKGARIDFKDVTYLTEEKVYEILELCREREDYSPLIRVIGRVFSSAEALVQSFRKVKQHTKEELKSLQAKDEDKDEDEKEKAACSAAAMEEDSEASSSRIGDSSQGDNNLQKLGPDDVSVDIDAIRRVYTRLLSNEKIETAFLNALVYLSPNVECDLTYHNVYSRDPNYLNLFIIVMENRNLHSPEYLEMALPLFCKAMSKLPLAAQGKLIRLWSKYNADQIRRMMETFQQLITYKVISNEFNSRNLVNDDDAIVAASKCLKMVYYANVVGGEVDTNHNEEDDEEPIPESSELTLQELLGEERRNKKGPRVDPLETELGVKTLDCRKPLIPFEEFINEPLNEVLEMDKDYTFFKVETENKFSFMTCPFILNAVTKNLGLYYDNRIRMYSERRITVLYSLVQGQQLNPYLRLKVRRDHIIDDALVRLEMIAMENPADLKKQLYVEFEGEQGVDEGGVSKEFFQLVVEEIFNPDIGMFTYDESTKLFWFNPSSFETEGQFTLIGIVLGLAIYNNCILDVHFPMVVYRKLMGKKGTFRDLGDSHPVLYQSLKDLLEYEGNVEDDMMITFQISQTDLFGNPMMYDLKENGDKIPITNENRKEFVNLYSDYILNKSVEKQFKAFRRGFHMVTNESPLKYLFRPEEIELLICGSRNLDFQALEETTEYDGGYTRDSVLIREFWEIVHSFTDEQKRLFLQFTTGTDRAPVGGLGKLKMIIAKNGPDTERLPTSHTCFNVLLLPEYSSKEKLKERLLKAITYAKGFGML

For GTX101092 (GeneTex) (antibody), the AEB1 [1] was 0.0264, the AEB2 [1] was 0.0248 and the Ave AEB [1] was 0.0256. It also gave a Signal to Background [1] of 1.14, an AEB1 [2] of 0.0531 and an AEB2 [2] of 0.0522. For the same substance, the Ave AEB [2] was 0.0527, the Signal to Background [2] was 1.05 and the AEB1 [3] was 0.0258. It also gave an AEB2 [3] of 0.0245, an Ave AEB [3] of 0.0252 and a Signal to Background [3] of 1.12. The AEB1 [4] was 0.0251, the AEB2 [4] was 0.0292 and the Ave AEB [4] was 0.0271. It also gave a Signal to Background [4] of 1.45, an AEB1 [5] of 0.017 and an AEB2 [5] of 0.0184. The Ave AEB [5] was 0.0177, the Signal to Background [5] was 0.95 and the AEB1 [6] was 0.0426. The AEB2 [6] was 0.0425, the Ave AEB [6] was 0.0426 and the Signal to Background [6] was 0.64. It also gave an AEB1 [7] of 0.0178, an AEB2 [7] of 0.0198 and an Ave AEB [7] of 0.0188. The Signal to Background [7] was 1.01, the AEB1 [8] was 0.0483 and the AEB2 [8] was 0.0494. The Ave AEB [8] was 0.0489, the Signal to Background [8] was 0.97 and the AEB1 [9] was 0.0516. For the same substance, the AEB2 [9] was 0.0515, the Ave AEB [9] was 0.0516 and the Signal to Background [9] was 1.03. The AEB1 [10] was 0.0217, the AEB2 [10] was 0.0245 and the Ave AEB [10] was 0.0231. The Signal to Background [10] was 1.03, the AEB1 [11] was 0.0192 and the AEB2 [11] was 0.0198. For the same substance, the Ave AEB [11] was 0.0195, the Signal to Background [11] was 0.91 and the AEB1 [12] was 0.0957. The AEB2 [12] was 0.0942, the Ave AEB [12] was 0.095 and the Signal to Background [12] was 1.88. It also gave an AEB1 [13] of 0.0243, an AEB2 [13] of 0.0204 and an Ave AEB [13] of 0.0224. It also gave a Signal to Background [13] of 1.05, an AEB1 [14] of 0.0418 and an AEB2 [14] of 0.0409. The Ave AEB [14] was 0.0413, the Signal to Background [14] was 0.62 and the AEB1 [15] was 0.0504. It also gave an AEB2 [15] of 0.053, an Ave AEB [15] of 0.0517 and a Signal to Background [15] of 1.02. The AEB1 [16] was 0.0525, the AEB2 [16] was 0.0487 and the Ave AEB [16] was 0.0506. For the same substance, the Signal to Background [16] was 1, the AEB1 [17] was 0.0503 and the AEB2 [17] was 0.0488. For the same substance, the Ave AEB [17] was 0.0496, the Signal to Background [17] was 0.99 and the AEB1 [18] was 0.019. For the same substance, the AEB2 [18] was 0.021, the Ave AEB [18] was 0.02 and the Signal to Background [18] was 0.94. It also gave an AEB1 [19] of 0.0337, an AEB2 [19] of 0.034 and an Ave AEB [19] of 0.0339. It also gave a Signal to Background [19] of 1.59, an AEB1 [20] of 0.0412 and an AEB2 [20] of 0.0418. It also gave an Ave AEB [20] of 0.0415, a Signal to Background [20] of 0.62 and an AEB1 [21] of 0.0223. It also gave an AEB2 [21] of 0.0228, an Ave AEB [21] of 0.0225 and a Signal to Background [21] of 1. The AEB1 [22] was 0.0616, the AEB2 [22] was 0.0585 and the Ave AEB [22] was 0.0601. The Signal to Background [22] was 1.2, the AEB1 [23] was 0.0481 and the AEB2 [23] was 0.0445. For the same substance, the Ave AEB [23] was 0.0463 and the Signal to Background [23] was 0.69.
